Experimental data as given in patent publication US11021532.
Where two headings read alike, the source gives them in different places.

B1: COVID19_P24_C10 (scFv, V domains shown)
VH: QVQLVQSGAEVKKPGASVKVSCKASGYTFTENEMHWVRQAPGQGLEWMGIINPSGGSTSYAQKFQGRVTMTRDTSTSTVYMELSSLRSEDTAVYYCARDSGVDTATLRYYYYGMDVWGQGTTVTVSS
VL: DIQMTQSPSSLSASVGDRVTITCQASQDISKYLNWYQQKPGKAPKLLIYGASTLSDGVPSRFSGSGSGTDFTLTISSLQPEDFATYYCQQGYSTPYSFGQGTKLEIKR
B2: COVID19_P11_D08 (scFv, V domains shown)
VH: QVQLVQSGAEVKKPGASVKVSCKASGYTFTENEMHWVRQAPGQGLEWMGIINPSGGSTSYAQKFQGRVTMTRDTSTSTVYMELSSLRSEDTAVYYCARDSGVDTATLRYYYYGMDVWGQGTTVTVSS
VL: DIQMTQSPSSLSASVGDRVTITCQASQDISKYLNWYQQKPGKAPKLLIYGASTLSDGVPSRFSGSGSGTDFTLTISSLQPEDFATYYCQQGYSTPYSFGQGTKLEIKR
B3: COVID19_P23_G10 (scFv, V domains shown)
VH: QVQLVQSGAEVKKPGSSVKVSCKASGYTFTDYYIQWVRQAPGQGLEWMGWINPNSGGPNYAQKFQGRVTITADESTSTAYMELSSLRSEDTAVYYCARVDYGDYGRLEDYWGQGTLVTVSS
VL: DIQMTQSPSSLSASVGDRVTITCRASQSIYSWLAWYQQKPGKAPKLLIYDASSLESGVPSRFSGSGSGTDFTLTISSLQPEDFATYYCQQLNSYPYTFGQGTKVEIKR
B4: COVID19_P24_G09 (scFv, V domains shown)
VH: QVQLVQSGAEVKKPGASVKVSCKASGYTFTRYYIHWVRQAPGQGLEWMGIINPSGGSTTYAQKFQGRVTMTRDTSTSTVYMELSSLRSEDTAVYYCAKGAPHDYIWGSYRPDAFDIWGQGTMVTVSS
VL: DIQMTQSPSSLSASVGDRVTITCRASENIDSWLAWYQQKPGKAPKLLIYEASTLESGVPSRFSGSGSGTDFTLTISSLQPEDFATYYCHQYLSSPETFGQGTKVEIKR
B5: COVID19_P24_C06 (scFv, V domains shown)
VH: QVQLVQSGAEVKKPGASVKVSCKASGYIFTSYPIHWVRQAPGQGLEWMGWMNPNSGNTGYAQKFQGRVTMTRDTSTSTVYMELSSLRSEDTAVYYCARDRGSYDTDAFDIWGQGTMVTVSS
VL: DIQMTQSPSSLSASVGDRVTITCRASQDISNYLNWYQQKPGKAPKLLIYAASNLQSGVPSRFSGSGSGTDFTLTISSLQPEDFATYYCQQANSFPSTFGQGTKLEIKR
B6: COVID19_P24_B09 (scFv, V domains shown)
VH: QVQLVQSGAEVKKPGSSVYVSCKASGYTFTSYGISWVRQAPGQGLEWMGGIIPMFGTTNYAQKFQGRVTITADKSTSTAYMELSSLRSEDTAVYYCARDRGDTIDYWGQGTLVTVSS
VL: DIQMTQSPSSLSASVGDRVTITCRASQGISNNLNWYQQKPGKAPKLLIYAASSLESGVPSRFSGSGSGTDFTLTISSLQPEDFATYYCQQGNGFPLTFGPGTKVDIKR
B7: COVID19_P11_H07 (scFv, V domains shown)
VH: QVQLVQSGAEVKKPGASVKVSCKASGYTFTSYDINWVRQAPGQGLEWMGWMNSNSGSTGYAQKFQGRVTMTRDTSTSTVYMELSSLRSEDTAVYYCARGWMAYDAFDIWGQGTMVTVSS
VL: DIQMTQSPSSLSASVGDRVTITCQASQSIYNYLNWYQQKPGKAPKLLIYDASNLETGVPSRFSGSGSGTDFTLTISSLQPEDFATYYCQQAISFPLTFGGGTKVEIKR
B8: COVID19_P23_F10 (scFv, V domains shown)
VH: QVQLVQSGAEVKKPGASVKVSCKASGDTFSNYGISWVRQAPGQGLEWMGWMNPNSGGTNYAQKFQGRVTMTRDTSTSTVYMELSSLRSEDTAVYYCAIGTTVVTPFGYWGQGTLVNVSS
VL: EIVMTQSPATLSVSPGERATLSCRASESVSSRYLAWYQQKPGQAPRLLIYGASTRATGIPARFSGSGSGTEFTLTISSLQSEDFAVYYCQQGYKNPPTFGQGTKVEIKR
B9: COVID19_P24_H06 (scFv, V domains shown)
VH: EVQLLESGGGLVQPGGSLRLSCAASGFSFSNYDMHWVRQAPGKGLEWVAVISYDGGFKLYADSVKGRFTISRDNAKNSLYLRMNSLRSEDTAVYYCARGQVRGSGPQVVVMDVWGKGTTVTVSS
VL: DIQMTQSPSSLSASVGDRVTITCQASQGIRNDLGWYQQKPGKAPKLLIYDASRLQSGVPSRFSGSGSGTDFTLTISSLQPEDFATYYCQQYYSTPPLTFGQGTKVEIKR
B10: COVID19_P24_D09 (scFv, V domains shown)
VH: QVQLVQSGAEVKKPGASVKVSCKASGGTFSSYAISWVRQAPGQGLEWMGIVNPSSGSTTYAQKFQGRVTMTRDTSTSTVYMELSSLRSEDTAVYYCARVRGSAAIAMMDVWGQGTTVTVSS
VL: DIQMTQSPSSLSASVGDRVTITCRASQDIRNELGWYQQKPGKAPKLLIYAASSLQSGVPSRFSGSGSGTDFTLTISSLQPEDFATYYCQQSYSTPPWTFGQGTKLEIKR
B11: COVID19_P24_A09 (scFv, V domains shown)
VH: QVQLVQSGAEVKKPGASVKVSCKASGYTFTDYYMQWVRQAPGQGLEWMGWIDPHSGATNYAHSFQGRVTMTRDTSTSTVYMELSSLRSEDTAVYYCARLEGGSYWTGYFDLWGRGTLVTVSS
VL: EIVMTQSPATLSVSPGERATLSCRASQSVSSNYLAWYQQKPGQAPRLLIYAVSSRATGIPARFSGSGSGTEFTLTISSLQSEDFAVYYCQQYGSSPLTFGGGTKVEIKR
B12: COVID19_P24_F11 (scFv, V domains shown)
VH: EVQLLESGGGLVQPGGSLRLSCAASGFTFSGSAMHWVRQAPGKGLEYVSAISRNGGTTYYADSVKGRFTISRDNSKNTLYLQMNSLRAEDTAVYYCAKDGTLITTTLDYWGQGTLVTVSS
VL: DIQMTQSPSSLSASVGDRVTITCRASQSIGYYLNWYQQKPGKAPKLLIYAASSLQSGVPSRFSGSGSGTDFTLTISSLQPEDFATYYCQQSYTTPLTFGGGTKVEIKR
B13: COVID19_P11_G03 (scFv, V domains shown)
VH: QVQLVQSGAEVKKPGASVKVSCKASGYTFTSYEINWVRQAPGQGLEWMGIINPSDGSSTYAQKFQGRVTMTRDTSTSTVYMELSSLRSEDTAVYYCARDRGYSYDHDQIYYYYGMDVWGQGTTVTVSS
VL: DIQMTQSPSSLSASVGDRVTITCRVSQGISSYLNWYQQKPGKAPKLLIYAASILQSGVPSRFSGSGSGTDFTLTISSLQPEDFATYYCQQGYSTPFTFGPGTKVDIKR
B14: COVID19_P24_A11 (scFv, V domains shown)
VH: QVQLVQSGAEVKKPGASVKVSCKASGYTFTENEMHWVRQAPGQGLEWMGIINPSGGSTSYAQKFQGRVTMTRDTSTSTVYMELSSLRSEDTAVYYCARDLMDIVVVPWLGGMDVWGQGTTVTVSS
VL: DIQMTQSPSSLSASVGDRVTITCRASQAITNYLAWYQQKPGKAPKLLIYAASSLQSGVPSRFSGSGSGTDFTLTISSLQPEDFATYYCQQYYSYPPTFGQGTKLEIKR
B15: COVID19_P24_H04 (scFv, V domains shown)
VH: QVQLVQSGAEVKKPGASVKVSCKASGYTFTDYHMHWVRQAPGQGLEWMGWMNPNSGNTSYAQKFQGRVTMTRDTSTSTVYMELSSLRSEDTAVYYCAGMGMGRDGYNSRAFDIWGQGTMVTVSS
VL: DIQMTQSPSSLSASVGDRVTITCRASQSISTYLNWYQQKPGKAPKLLIYAASTLQSGVPSRFSGSGSGTDFTLTISSLQPEDFATYYCQQSYSMPLTFGQGTKVEIKR
B16: COVID19_P11_D12 (scFv, V domains shown)
VH: QVQLVQSGAEVKKPGASVKVSCKASGYTFTENEMHWVRQAPGQGLEWMGIINPSGGSTSYAQKFQGRVTMTRDTSTSTVYMELSSLRSEDTAVYYCAKTRYGGNSRSRYYYYGMDVWGQGTTVTVSS
VL: DIQMTQSPSSLSASVGDRVTITCRASQHISSYLNWYQQKPGKAPKLLIYAASALQSGVPSRFSGSGSGTDFTLTISSLQPEDFATYYCQQGYGTPYTFGQGTKVEIKR
B17: COVID19_P11_H02 (scFv, V domains shown)
VH: QVQLVQSGAEVKKPGASVKVSCKASGGTFTSYHMHWVRQAPGQGLEWMGWMNPNSGNTGYALKFQGRVTMTRDTSTSTVYMELSSLRSEDTAVYYCASFERFGELVPETFDYWGQGTLVTVSS
VL: DIQMTQSPSSLSASVGDRVTITCRASQGIRNDLAWYQQKPGKAPKLLIYAASSLQSGVPSRFSGSGSGTDFTLTISSLQPEDFATYYCQQSYSTPPTFGQGTKLEIKR

How the values were obtained:
[1] = biological target: SARS-CoV-2 Receptor Binding Domain (RBD) protein (SARS-CoV-2); assay: SPR (Carterra LSA), scFv captured via anti-V5, RBD as analyte, 1:1 fit
[2] = biological target: SARS-CoV-2 Receptor Binding Domain (RBD) protein (SARS-CoV-2); assay: SPR (Carterra LSA), scFv captured via anti-V5, RBD as analyte
[3] = biological target: SARS-CoV-2 Receptor Binding Domain (RBD) protein (SARS-CoV-2)

Row | Binder | Kd [1] [nM] | koff [1] [s⁻¹] | kon [1] [M⁻¹ s⁻¹] | Kd [2] [nM] | Kd [3] [nM]
1 | B1 | 0.88 | 0.000487 | 553000 | < 50 | –
2 | B2 | 4.7 | 0.00053 | 110000 | < 50 | –
3 | B3 | 0.37 | 5.7e-05 | 154000 | < 50 | –
4 | B4 | 1.56 | 0.000512 | 329000 | < 50 | –
5 | B5 | 0.3 | 5.7e-05 | 228000 | < 50 | –
6 | B6 | 27.5 | 0.0139 | 508000 | < 50 | –
7 | B7 | 0.5 | 5.7e-05 | 110000 | – | < 50
8 | B8 | 7.86 | 0.00077 | 98000 | < 50 | –
9 | B9 | 0.5 | 5.7e-05 | 120000 | < 50 | –
10 | B10 | 0.5 | 5.7e-05 | 114000 | < 50 | –
11 | B11 | 1.51 | 0.000229 | 152000 | < 50 | –
12 | B12 | 0.46 | 0.00028 | 616000 | < 50 | –
13 | B13 | 6.45 | 0.00064 | 99000 | < 50 | –
14 | B14 | 1.95 | 0.000308 | 158000 | < 50 | –
15 | B15 | 4 | 0.00068 | 170000 | < 50 | –
16 | B16 | 4.3 | 0.00034 | 79000 | < 50 | –
17 | B17 | 2.2 | 0.00071 | 320000 | < 50 | –
